For data set [1], the target named is Bone morphogenetic protein-2 (BMP-2) (Homo sapiens) (UniProt P12643). The data set is described as follows: cell-based or functional assay.
UniProt P12643, sequence (P12643 283-396, form in doubt): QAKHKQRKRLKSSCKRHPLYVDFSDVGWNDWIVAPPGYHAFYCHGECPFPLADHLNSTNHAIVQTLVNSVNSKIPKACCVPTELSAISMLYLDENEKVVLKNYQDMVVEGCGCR

Turning to Factor Xa (FXa), in the data set with Antithrombin (AT), the “FXa activity (cleavage of chromogenic substrate S-2222), AT pre-incubated with HS5” value is “HS5 did not activate AT at any doses tested”; the “FXa activity (cleavage of chromogenic substrate S-2222), AT pre-incubated with heparin” value is listed as “heparin (a known anticoagulant) dose dependently activated AT resulting in the inhibition of FXa”; the “FXa activity (cleavage of chromogenic substrate S-2222), AT pre-incubated with pHS or bHS” value was “In the presence of pHS or bHS, AT significantly reduced FXa activity, but only at 3 µg/mL”.
For the substance noggin (ligand), in data set [1], the inhibition of BMP-2-induced ALP activity in C2C12 cells, noggin at 300 ng/mL, in the presence of heparin or HS5 (3 µg/mL) stood at 20% and the inhibition of BMP-2-induced ALP activity in C2C12 cells, noggin at 300 ng/mL, no GAG amounted to 70%.

(Values after US20120087899A1.)
